The source of these data is patent publication US8247194 (Amgen, dated 2012).

To fix the notation:
B1: half-human SCA B33oN-22 (scFv)
scFv: ELQLVEQSGAALVKPGDSVKMSCKASGYPFTDYIVHWVKQSHGKSLDWIGYINPYSGDTKFNEKFKSKATLTVDKSSSTAYMEFSRLTSEDSAIYYCARSGLIAVYFDYWGQGTTVTVSSGGGGSGGGGSGGGGSELVLTQSPDFQSVTPKEKVTITCRASQSIGSSLHWYQQKPDQSPKLLIKFASQSFSGVPSRFSGSGSGTDFTLTINSLEAEDAATYYCQQSYSTPPTFGQGTKVEIKTGDYKDDDDKHHHHHH
notes: Expressed from pComb3H5BFlag/His
B2: half-human SCA B33oN-8 (scFv)
scFv: ELQLVEQSGAALVKPGDSVKMSCKASGYPFTDYIVHWVKQSHGKSLDWIGYINPYSGDTKFNEKFKSKATLTVDKSSSTAYMEFSRLTSEDSAIYYCARSGLIAVYFDYWGQGTTVTVSSGGGGSGGGGSGGGGSELVLTQSPGFQSVTPKEKVTITCRASQSIGSSLNWYQQKPDQPPKLLIKFASQSISGVSSRFSGTGSGTDFTLTISSLQPEDVATYYCQQSYSTPPTFGQGTKLEIKTGDYKDDDDKHHHHHH
notes: as for B1
B3: half-human SCA B32oN-44 (scFv)
scFv: ELQLVEQSGAALVKPGDSVKMSCKASGYPFTDYIVHWVKQSHGKSLDWIGYINPYSGDTKFNEKFKSKATLTVDKSSSTAYMEFSRLTSEDSAIYYCARSGLIAVYFDYWGQGTTVTVSSGGGGSGGGGSGGGGSELVLTQSPDFQSVTPKEKVTITCRASQSIGSSLHWYQQKPDQPPKLLIKFASQSISRVPSRFSGTGSGTDFTLTINSLEAEDAATYYCQQSFSFPYTFGQGTKLEIKTGDYKDDDDKHHHHHH
notes: as for B1
B4: half-human SCA B33oN-66 (scFv)
scFv: ELQLVEQSGAALVKPGDSVKMSCKASGYPFTDYIVHWVKQSHGKSLDWIGYINPYSGDTKFNEKFKSKATLTVDKSSSTAYMEFSRLTSEDSAIYYCARSGLIAVYFDYWGQGTTVTVSSGGGGSGGGGSGGGGSELVLTQSPDFQSVTPKEKVTITCRASQSIGSNLHWYQQKPDQSPKLLIKFASQSFSGVPSRFSGSGSGTDFSLTINSLEAEDAATYYCQQSYSTPPTFGQGTRLEIKTGDYKDDDDKHHHHHH
notes: as for B1
B5: half-human SCA B33oN-21 (scFv)
scFv: ELQLVEQSGAALVKPGDSVKMSCKASGYPFTDYIVHWVKQSHGKSLDWIGYINPYSGDTKFNEKFKSKATLTVDKSSSTAYMEFSRLTSEDSAIYYCARSGLIAVYFDYWGQGTTVTVSSGGGGSGGGGSGGGGSELVLTQSPDFQSVTPKEKVTITCRASQSIGSSLHWYQQKPDQSPKLLIKFASQSLSGVPSRFSGSGSGTDFTLTINSLEAEDAATYYCQQSYSTPWTFGQGTKLEIKTGDYKDDDDKHHHHHH
notes: as for B1
B6: half-human SCA B32oN-49 (scFv)
scFv: ELQLVEQSGAALVKPGDSVKMSCKASGYPFTDYIVHWVKQSHGKSLDWIGYINPYSGDTKFNEKFKSKATLTVDKSSSTAYMEFSRLTSEDSAIYYCARSGLIAVYFDYWGQGTTVTVSSGGGGSGGGGSGGGGSELVLTQSPDFQSVTPKEKVTITCRASQSIGSSLHWYQQKPDQSPKLLIKFASQSLSGVPSRFSGSGSGTDFTLTISSLQPEDFATYYCQQSYTTPPTFGGGTKVEIKTGDYKDDDDKHHHHHH
notes: as for B1
B7: half-human SCA B33oN-69 (scFv)
scFv: ELQLVEQSGAALVKPGDSVKMSCKASGYPFTDYIVHWVKQSHGKSLDWIGYINPYSGDTKFNEKFKSKATLTVDKSSSTAYMEFSRLTSEDSAIYYCARSGLIAVYFDYWGQGTTVTVSSGGGGSGGGGSGGGGSELVLTQSPDFQSVTPKEKVTITCRASQSIGTGLHWYQQKPDQSPKLLIKFASQSFSGVPSRFSGSGSGTDFTLTINGLEAEDAATYYCQQSSTLPPTFGQGTKLEIKTGDYKDDDDKHHHHHH
notes: as for B1

T1 sequence (P04141 18-144 limits assumed): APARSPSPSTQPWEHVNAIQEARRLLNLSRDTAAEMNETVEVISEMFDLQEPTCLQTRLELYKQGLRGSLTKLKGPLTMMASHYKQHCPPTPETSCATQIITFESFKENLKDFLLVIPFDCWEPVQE

This assay concerns the target T1, recombinant human GM-CSF (rhGM-CSF), produced in E. coli (human, UniProt P04141 18-144).
T1 construct: The ELISA of 2.5.2 and the TF-1 proliferation assays say only rhGM-CSF without naming the preparation; they are assigned to this molecule; also called human GM-CSF antigen; recombinant human granulocyte macrophage colony stimulating factor
Description: SPR off-rate ranking, purified periplasmic preparation over immobilized rhGM-CSF; clone listed among the sequenced hits in the 2nd table. Here is the method: FIG. 9: Binding analysis (kinetic off rate) of SCA hits derived from the method of the invention, as determined by SPR. Binding kinetics of the SCA hits were measured injecting 10 µL of purified periplasmic preparation ("PPP") protein solution with a flow rate of 5 µL/min at 25° C. onto the sensor chip. The data were monitored in all four flow cells. Background association with the unmodified CM5 chip surface (FC1) was substracted from the binding to the immobilised rhGM-CSF (FC2) allowing analysis of the specific binding signal (FC2-FC1 response difference). The dissociation rate was monitored for 100 sec (FIG. 4). The amplitude of the binding peak (RUmax) directly correlates to the protein concentration in the injected sample. The kinetic association rate constant (ka) is concentration dependent and can—due to varying concentrations of the PPP protein solution—not be used for the qualitative ranking of the purified PPP SCA material. The kinetic dissociation rate constant (kd) is protein concentration independent and characteristic for the binding strength of the respective SCA hit. The SCA hits with the best apparent off rate were identified.
As for B1, the binding result was “binds”.

As for B2, the binding result is recorded as “binds”. As to B3, the binding result is on record as “binds”. Turning to B4, the binding result was “binds”. Take B5: the binding result is recorded as “binds”. For B6 the value was “binds”; for B7, “binds”.
